The target in the assay is T1, wild-type human CCR7 (pcDNA3.1 Neo-hCCR7, 20100121357) (human, UniProt P32248 25-378).
T1 construct: Expressed on transfected 293T, CHO AM1/D or HEK293T cells; also called huCCR7; CCR7 receptor
T1 sequence: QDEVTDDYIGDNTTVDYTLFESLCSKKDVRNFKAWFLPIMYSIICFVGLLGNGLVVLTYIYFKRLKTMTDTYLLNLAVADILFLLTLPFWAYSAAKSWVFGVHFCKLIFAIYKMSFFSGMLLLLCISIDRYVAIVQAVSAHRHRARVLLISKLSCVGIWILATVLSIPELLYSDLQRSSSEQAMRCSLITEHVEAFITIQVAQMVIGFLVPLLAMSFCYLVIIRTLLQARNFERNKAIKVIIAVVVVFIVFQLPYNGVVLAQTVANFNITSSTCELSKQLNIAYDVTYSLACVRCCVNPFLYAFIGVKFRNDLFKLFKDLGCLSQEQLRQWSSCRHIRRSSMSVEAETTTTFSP
As to the kind of experiment: hybridoma screening on cells expressing human CCR7.

B1: antibody 6E1.2 (antibody, human IgG2, lambda, V domains shown)
VH: QGQLVESGGGVVQPGRSLRLSCAASGFTFRSYGMHWVRQAPGKGLEWVAVIWYDGSKKYYADSVKGRFTISRDNSKNTLFLQMNSLRAEDTAVYYCARDGGIAAFLQDNWFDPWGQGTLVTVSS
VL: SYELTQPPSVSVSPGQTASITCSGNKLGDKYASWYHQKPGQSPVLVIYQDNKRPSGIPERFSGSNSGNTATLTISGTQTMDEADYFCQAWDRTVVFGGGTKLTVLG
notes: Human antibody from XenoMouse hybridoma; Light = 26 and heavy = 58 is inferred from the order of the listing
As for B1, the binding result is given as “binds”.
